Results as given in article PMC10838023 (Molecular microbiology, 2023).

Assays:
[1] = biological target: the molecule itself; assay: SEC
[2] = biological target: T1, GfcR-StrepII (Haloferax volcanii (expressed in H26), UniProt Q8NKQ2 1-210); assay: EMSA
T1 sequence: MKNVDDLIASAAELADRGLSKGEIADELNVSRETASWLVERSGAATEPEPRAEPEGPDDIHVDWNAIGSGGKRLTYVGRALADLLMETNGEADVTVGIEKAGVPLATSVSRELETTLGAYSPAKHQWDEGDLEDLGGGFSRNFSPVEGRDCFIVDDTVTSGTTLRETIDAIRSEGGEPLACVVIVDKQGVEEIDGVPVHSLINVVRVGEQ

B1: GfcR-StrepII (glucose and fructose catabolism regulator GfcR of Haloferax volcanii with a C-terminal StrepII tag) (natural protein, UniProt Q8NKQ2 1-210, looked up)
chain: T1 sequence
In the case of B1, the “stoichiometry N” value [1] is reported as 4.

B2: PptfC (dsDNA)
DNA 1: GGACCTCGAAGACGTGCTGACGAACGAAACGCACGTCGAGGTGACGACCGTTCGGACCCGGTGACTCTCGGATGAACGTTTGTTAACGACCGAAACACGCAGTAACGTTCATATTCGAAAGGGTTTTTGAGCACATTTGCGTACGTTCTTTCGTAGGGGTGGCAACACTATG
DNA 2: CATAGTGTTGCCACCCCTACGAAAGAACGTACGCAAATGTGCTCAAAAACCCTTTCGAATATGAACGTTACTGCGTGTTTCGGTCGTTAACAAACGTTCATCCGAGAGTCACCGGGTCCGAACGGTCGTCACCTCGACGTGCGTTTCGTTCGTCAGCACGTCTTCGAGGTCC
B2: binds [2].
